Reference: patent US20250154277A1 (CONCEPT TO MEDICINE BIOTECH, published 2025)

T1: human 5T4-His protein (human, UniProt Q13641 32-355)
T1 construct: also called recombinant 5T4 protein (human 5T4-his tag); human 5T4 protein; not shown: His tag
T1 sequence (looked up): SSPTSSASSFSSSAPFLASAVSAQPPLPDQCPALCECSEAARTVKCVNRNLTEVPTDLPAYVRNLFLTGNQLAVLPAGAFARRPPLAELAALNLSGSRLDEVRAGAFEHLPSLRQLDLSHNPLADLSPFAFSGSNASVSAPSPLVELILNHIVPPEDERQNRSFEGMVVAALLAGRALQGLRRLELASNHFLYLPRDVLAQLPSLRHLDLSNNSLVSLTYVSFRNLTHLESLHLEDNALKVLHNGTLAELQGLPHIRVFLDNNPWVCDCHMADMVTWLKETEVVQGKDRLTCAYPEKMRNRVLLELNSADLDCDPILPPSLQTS


Tests used:
[1] = target: T1, human 5T4-His protein; assay: SPR Biacore, Protein A capture
Experimental: The binding of the 393E9 humanized antibodies to recombinant 5T4 protein (human 5T4-his tag) was tested with Biacore using a capture method. The mAbs were captured using Protein A chip. A serial dilution of human 5T4-his tag protein was injected over captured antibody for 3 mins at a flow rate of 30 μl/min. The antigen was allowed to dissociate for 280-800 s. All the experiments were carried out on a Biacore T200. Data analysis was carried out using the Biacore T200 evaluation software.

[2] = target: T1, human 5T4-His protein; assay: ELISA, coated 5T4-His
Experimental: To evaluate the binding activity of 393E9 humanized antibodies to human 5T4, the 393E9 chimeric antibody (393E9-C) along with 393E9 humanized mAbs were subjected to ELISA test.
Briefly, microtiter plates were coated with human 5T4-His protein at 1 μg/ml in PBS, 100 μl/well at 4° C. overnight, then blocked with 150 μl/well of 1% BSA. 4-fold dilutions of antibodies starting from 20 nM were added to each well and incubated for 1 hour at 37° C. The plates were washed with PBS/Tween and then incubated with Goat Anti-Human IgG-HRP for 30 mins at 37° C. After washing, the plates were developed with TMB substrate and analyzed by spectrophotometer at OD 450 nm. As shown in FIG. 12 and Table 9, most of the humanized antibodies bound to human 5T4 with high activity.

Binder	Kd [1] [nM]	koff [1] [s⁻¹]	kon [1] [M⁻¹ s⁻¹]	EC50 [2] [nM]
393E9_hVH2_hVL1 (antibody, V domains shown, humanized) VH: EVQLVESGGGLIQPGGSLRLSCAASGFTFTDYYMSWVRQPPGKGLEWVGFIRNKGNGYTTENSASVKGRFTISRDNSKSTLYLQMNSLRAEDTAVYYCARYRGNPHYAMDYWGQGTLVTVSS VL: DIVLTQSPDSLAVSLGERATINCRASESVEFYGTSFLQWYQQKPGQPPKLLIYGASNVESGVPDRFSGSGSGTDFTLTISSLQAEDIAVYFCQQSRKVPSTFGGGTKVEIK	0.547	0.000104	190000	0.17
393E9_hVH5_hVL3 (antibody, V domains shown, humanized; also called Hu393E9-53) VH: EVQLVESGGGLVQPGRSLRLSCTASGFTFTDYYMSWVRQAPGKGLEWVGFIRNKGNGYTTENSASVKGRFTISRDNSKSILYLQMNSLKTEDTAVYYCARYRGNPHYAMDYWGQGTLVTVSS VL: DIQLTQSPSSLSASVGDRVTITCRASESVEFYGTSFLQWYQQKPGKAPKLLIYGASNVESGVPSRFSGSGSGTDFTLTISSLQPEDIATYFCQQSRKVPSTFGGGTKVEIK	0.7	0.000119	170000	0.12
393E9_hVH3_hVL1 (antibody, V domains shown, humanized) VH: QVQLVESGGGVVQPGGSLRLSCAASGFTFTDYYMSWVRQAPGKGLEWVGFIRNKGNGYTTENSASVKGRFTISRDNSKSTLYLQMNSLRAEDTAVYYCARYRGNPHYAMDYWGQGTLVTVSS VL: DIVLTQSPDSLAVSLGERATINCRASESVEFYGTSFLQWYQQKPGQPPKLLIYGASNVESGVPDRFSGSGSGTDFTLTISSLQAEDIAVYFCQQSRKVPSTFGGGTKVEIK	0.506	0.000108	213000	0.16
393E9_hVH2_hVL5 (antibody, V domains shown, humanized) VH: EVQLVESGGGLIQPGGSLRLSCAASGFTFTDYYMSWVRQPPGKGLEWVGFIRNKGNGYTTENSASVKGRFTISRDNSKSTLYLQMNSLRAEDTAVYYCARYRGNPHYAMDYWGQGTLVTVSS VL: EIVLTQSPGTLSLSPGERATLSCRASESVEFYGTSFLQWYQQKPGQAPRLLIYGASNVESGIPDRFSGSGSGTDFTLTISRLEPEDIAVYFCQQSRKVPSTFGGGTKVEIK	0.56	0.000122	217000	0.11
393E9_hVH6_hVL2 (antibody, V domains shown, humanized; also called Hu393E9-62) VH: EVQLVESGGGLVQPGGSLRLSCAASGFTFTDYYMSWVRQAPGKGLEWVGFIRNKGNGYTTENSASVKGRFTISRDNAKSSLYLQMNSLRAEDTAVYYCARYRGNPHYAMDYWGQGTLVTVSS VL: EIVLTQSPATLSVSPGERATLSCRASESVEFYGTSFLQWYQQKPGQAPRLLIYGASNVESGIPARFSGSGSGTEFTLTISSLQSEDIAVYFCQQSRKVPSTFGGGTKVEIK	0.687	0.000137	199000	0.11
393E9_hVH2_hVL2 (antibody, V domains shown, humanized) VH: EVQLVESGGGLIQPGGSLRLSCAASGFTFTDYYMSWVRQPPGKGLEWVGFIRNKGNGYTTENSASVKGRFTISRDNSKSTLYLQMNSLRAEDTAVYYCARYRGNPHYAMDYWGQGTLVTVSS VL: EIVLTQSPATLSVSPGERATLSCRASESVEFYGTSFLQWYQQKPGQAPRLLIYGASNVESGIPARFSGSGSGTEFTLTISSLQSEDIAVYFCQQSRKVPSTFGGGTKVEIK	0.594	0.00012	201000	0.12
393E9_hVH5_hVL5 (antibody, V domains shown, humanized) VH: EVQLVESGGGLVQPGRSLRLSCTASGFTFTDYYMSWVRQAPGKGLEWVGFIRNKGNGYTTENSASVKGRFTISRDNSKSILYLQMNSLKTEDTAVYYCARYRGNPHYAMDYWGQGTLVTVSS VL: EIVLTQSPGTLSLSPGERATLSCRASESVEFYGTSFLQWYQQKPGQAPRLLIYGASNVESGIPDRFSGSGSGTDFTLTISRLEPEDIAVYFCQQSRKVPSTFGGGTKVEIK	0.598	0.000121	202000	0.11
393E9_hVH4_hVL2 (antibody, V domains shown, humanized) VH: EVQLVESGGGLVQPGGSLRLSCAASGFTFTDYYMSWVRQAPGKGLEWVGFIRNKGNGYTTENSASVKGRFTISRDNSKSSLYLQMNSLKTEDTAVYYCARYRGNPHYAMDYWGQGTLVTVSS VL: EIVLTQSPATLSVSPGERATLSCRASESVEFYGTSFLQWYQQKPGQAPRLLIYGASNVESGIPARFSGSGSGTEFTLTISSLQSEDIAVYFCQQSRKVPSTFGGGTKVEIK	0.603	0.000123	204000	0.12
393E9_hVH6_hVL3 (antibody, V domains shown, humanized) VH: EVQLVESGGGLVQPGGSLRLSCAASGFTFTDYYMSWVRQAPGKGLEWVGFIRNKGNGYTTENSASVKGRFTISRDNAKSSLYLQMNSLRAEDTAVYYCARYRGNPHYAMDYWGQGTLVTVSS VL: DIQLTQSPSSLSASVGDRVTITCRASESVEFYGTSFLQWYQQKPGKAPKLLIYGASNVESGVPSRFSGSGSGTDFTLTISSLQPEDIATYFCQQSRKVPSTFGGGTKVEIK	0.691	0.000124	179000	0.052

Further binders by falling Kd [1], results first:

Kd [1] [nM]	koff [1] [s⁻¹]	kon [1] [M⁻¹ s⁻¹]	EC50 [2] [nM]	Binder
0.706	0.000128	181000	0.13	393E9_hVH4_hVL3 (antibody, V domains shown, humanized) VH: EVQLVESGGGLVQPGGSLRLSCAASGFTFTDYYMSWVRQAPGKGLEWVGFIRNKGNGYTTENSASVKGRFTISRDNSKSSLYLQMNSLKTEDTAVYYCARYRGNPHYAMDYWGQGTLVTVSS VL: DIQLTQSPSSLSASVGDRVTITCRASESVEFYGTSFLQWYQQKPGKAPKLLIYGASNVESGVPSRFSGSGSGTDFTLTISSLQPEDIATYFCQQSRKVPSTFGGGTKVEIK
0.684	0.00012	174000	0.11	393E9_hVH2_hVL3 (antibody, V domains shown, humanized) VH: EVQLVESGGGLIQPGGSLRLSCAASGFTFTDYYMSWVRQPPGKGLEWVGFIRNKGNGYTTENSASVKGRFTISRDNSKSTLYLQMNSLRAEDTAVYYCARYRGNPHYAMDYWGQGTLVTVSS VL: DIQLTQSPSSLSASVGDRVTITCRASESVEFYGTSFLQWYQQKPGKAPKLLIYGASNVESGVPSRFSGSGSGTDFTLTISSLQPEDIATYFCQQSRKVPSTFGGGTKVEIK
0.595	0.000129	217000	0.22	393E9_hVH4_hVL5 (antibody, V domains shown, humanized; also called Hu393E9-45) VH: EVQLVESGGGLVQPGGSLRLSCAASGFTFTDYYMSWVRQAPGKGLEWVGFIRNKGNGYTTENSASVKGRFTISRDNSKSSLYLQMNSLKTEDTAVYYCARYRGNPHYAMDYWGQGTLVTVSS VL: EIVLTQSPGTLSLSPGERATLSCRASESVEFYGTSFLQWYQQKPGQAPRLLIYGASNVESGIPDRFSGSGSGTDFTLTISRLEPEDIAVYFCQQSRKVPSTFGGGTKVEIK
0.574	0.000122	212000	0.19	393E9_hVH6_hVL5 (antibody, V domains shown, humanized) VH: EVQLVESGGGLVQPGGSLRLSCAASGFTFTDYYMSWVRQAPGKGLEWVGFIRNKGNGYTTENSASVKGRFTISRDNAKSSLYLQMNSLRAEDTAVYYCARYRGNPHYAMDYWGQGTLVTVSS VL: EIVLTQSPGTLSLSPGERATLSCRASESVEFYGTSFLQWYQQKPGQAPRLLIYGASNVESGIPDRFSGSGSGTDFTLTISRLEPEDIAVYFCQQSRKVPSTFGGGTKVEIK
0.574	0.000111	193000	0.14	393E9_hVH3_hVL3 (antibody, V domains shown, humanized) VH: QVQLVESGGGVVQPGGSLRLSCAASGFTFTDYYMSWVRQAPGKGLEWVGFIRNKGNGYTTENSASVKGRFTISRDNSKSTLYLQMNSLRAEDTAVYYCARYRGNPHYAMDYWGQGTLVTVSS VL: DIQLTQSPSSLSASVGDRVTITCRASESVEFYGTSFLQWYQQKPGKAPKLLIYGASNVESGVPSRFSGSGSGTDFTLTISSLQPEDIATYFCQQSRKVPSTFGGGTKVEIK
0.515	0.000112	217000	0.13	393E9_hVH1_hVL5 (antibody, V domains shown, humanized) VH: EVQLVESGGGLVQPGGSLRLSCAASGFTFTDYYMSWVRQAPGKGLEWVGFIRNKGNGYTTENSASVKGRFTISRDNSKSTLYLQMNSLRAEDTAVYYCARYRGNPHYAMDYWGQGTLVTVSS VL: EIVLTQSPGTLSLSPGERATLSCRASESVEFYGTSFLQWYQQKPGQAPRLLIYGASNVESGIPDRFSGSGSGTDFTLTISRLEPEDIAVYFCQQSRKVPSTFGGGTKVEIK
0.502	0.00012	238000	0.12	393E9_hVH3_hVL5 (antibody, V domains shown, humanized) VH: QVQLVESGGGVVQPGGSLRLSCAASGFTFTDYYMSWVRQAPGKGLEWVGFIRNKGNGYTTENSASVKGRFTISRDNSKSTLYLQMNSLRAEDTAVYYCARYRGNPHYAMDYWGQGTLVTVSS VL: EIVLTQSPGTLSLSPGERATLSCRASESVEFYGTSFLQWYQQKPGQAPRLLIYGASNVESGIPDRFSGSGSGTDFTLTISRLEPEDIAVYFCQQSRKVPSTFGGGTKVEIK
